# Data reported in patent publication US6893638.
# T1: B7.1/Ig fusion protein (human, UniProt P33681 35-242, 125I radiolabel where used as tracer)
# T1 construct: Secreted from CHO cells; also called B7-Ig; not shown: human immunoglobulin CH2 and CH3 domains of the NEOSPLA cassette vector; isotype
# T1 sequence (looked up): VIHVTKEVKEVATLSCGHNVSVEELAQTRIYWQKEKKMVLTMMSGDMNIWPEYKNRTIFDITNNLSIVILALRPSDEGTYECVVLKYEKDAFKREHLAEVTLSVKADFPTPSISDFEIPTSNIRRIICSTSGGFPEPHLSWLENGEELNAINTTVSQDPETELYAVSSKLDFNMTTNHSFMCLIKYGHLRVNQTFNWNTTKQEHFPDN
# T2: membrane associated human B7.1 on cells (human, UniProt P33681 35-288)
# T2 sequence (looked up): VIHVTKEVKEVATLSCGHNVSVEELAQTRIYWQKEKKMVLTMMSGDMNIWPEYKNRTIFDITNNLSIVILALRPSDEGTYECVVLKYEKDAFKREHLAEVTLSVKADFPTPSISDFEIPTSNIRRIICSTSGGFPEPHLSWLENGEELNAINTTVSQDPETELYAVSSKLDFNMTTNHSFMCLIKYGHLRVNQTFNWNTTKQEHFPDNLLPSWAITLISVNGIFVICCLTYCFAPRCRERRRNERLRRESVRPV
# B1: monkey monoclonal anti-B7.1 antibody 16C10 (antibody, V domains shown)
# VH: QVQLQESGPGLVKPSETLSLTCAVSGGSISGGYGWGWIRQPPGKGLEWIGSFYSSSGNTYYNPSLKSQVTISTDTSKNQFSLKLNSMTAADTAVYYCVRDRLFSVVGMVYNNWFDVWGPGVLVTVSS
# VL: ESVLTQPPSVSGAPGQKVTISCTGSTSNIGGYDLHWYQQLPGTAPKLLIYDINKRPSGISDRFSGSKSGTAASLAITGLQTEDEADYYCQSYDSSLNAQVFGGGTRLTVL
# notes: Tested as the original cynomolgus monkey Ig from a heterohybridoma
# B2: monkey monoclonal anti-B7.1 antibody 7C10 (antibody, V domains shown)
# VH: QVKLQQWGEGLLQPSETLSRTCVVSGGSISGYYYWTWIRQTPGRGLEWIGHIYGNGATTNYNPSLKSRVTISKDTSKNQFFLNLNSVTDADTAVYYCARGPRPDCTTICYGGWVDVWGPGDLVTVSS
# VL: AYELTQPPSVSVSPGQTARITCGGDNSRNEYVHWYQQKPARAPILVIYDDSDRPSGIPERFSGSKSGNTATLTINGVEAGDEADYYCQVWDRASDHPVFGGGTRVTVL
# notes: Tested as the original cynomolgus monkey Ig from a heterohybridoma; A leader may be included in the entries; also called 7C10 monkey Ig
# B3: monkey monoclonal anti-B7.1 antibody 7B6 (antibody, V domains shown)
# VH: EVQLVESGGGLVQPGGSLRVSCAVSGFTFSDHYMYWFRQAPGKGPEWVGFIRNKPNGGTTEYAASVKDRFTISRDDSKSIAYLQMSSLKIEDTAVYYCTTSYISHCRGGVCYGGYFEFWGQGALVTVSS
# VL: EVVMTQSPLSLPITPGEPASISCRSSQSLKHSNGDTFLSWYQQKPGQPPRLLIYKVSNRDSGVPDRFSGSGAGTDFTLKISAVEAEDVGVYFCGQGTRTPPTFGGGTKVEIK
# notes: as for B1
# Target: T1, B7.1/Ig fusion protein
# Assay: Scatchard analysis, binding to B7-Ig coated plates
row,Kd [nM],Binder
1,~8.1,B1
2,~6.2,B2
3,~10.7,B3

# Target: T2, membrane associated human B7.1 on cells
# Assay: cell-based or functional assay
row,inhibit IL-2 production in mixed lymphocyte reaction [µg/mL],Binder
1,0.1,B1
2,5,B2
3,5,B3

# Target: T1, B7.1/Ig fusion protein
# Assay: Scatchard analysis, binding to B7-Ig coated plates
# Remark: another data set of the same source
row,Kd [nM],Binder
1,~8.1,B1
2,~6.2,B2
3,~10.7,B3
